# T1: TbRAP1 639-733 (RRM) (Trypanosoma brucei) (UniProt C1JEX5)
# T1 sequence: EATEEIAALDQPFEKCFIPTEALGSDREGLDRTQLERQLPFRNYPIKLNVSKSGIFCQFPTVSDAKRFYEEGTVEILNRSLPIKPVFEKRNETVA
# B1: 80-dsDNA (dsDNA)
# DNA 1: CGTGCAGAGCAGGAAAAAGCCACACGGGAACTCCTCCTGCAACAAACTTCAGCACCACATGCATCATCAGTTACATCCGG
# DNA 2: CCGGATGTAACTGATGATGCATGTGGTGCTGAAGTTTGTTGCAGGAGGAGTTCCCGTGTGGCTTTTTCCTGCTCTGCACG
# B2: 170-VSG-UTR (ssRNA)
# RNA: GGGCGAAUUGGGUACCGGGCCCCCCCUCGAGGUCGACGGUAUCGAUAAGCUUGAUAUCGAAUUCAAUUCAUUUCCCCCCUCAAAUUUCCCCCCUCCUUUUAAAAUUUUCCUUGCUACUUGAAAACUUUUUGAUAUAUUUUAACACCAAAACCAGCCGAGAUUUGGGAUCC
# B3: 170-no-VSG (ssRNA)
# RNA: GGGCGAAUUGGGUACCGGGCCCCCCCUCGAGGUCGACGGUAUCGAUAAGCUUGAUAUCGAAUUCAAUUCCAAAGAAGCCAUGCGCCGUGCAGAGCAGGAAAAAGCCACACGGGAACUCCUCCUGCAACAAACUUCAGCACCACAUGCAUCAUCAGUUACAUCCGGGAUCC
# Legend:
# [1] = target: T1, TbRAP1 639-733 (RRM) (Trypanosoma brucei); test: fluorescence polarization; settings: EMSA: 20 mM HEPES pH 7.9, 235 mM KCl, 1 mM MgCl2, 0.1 mM EDTA, 100 ng/ul BSA, 5% glycerol, 1 mM DTT, room temp 30 min; FP: 20 mM sodium phosphate pH 7.0, 50 mM …
# [2] = target: T2, TbRAP1 639-733 (RRM) (Trypanosoma brucei, UniProt C1JEX5 639-733); test: EMSA; EMSA: 20 mM HEPES pH 7.9, 235 mM KCl, 1 mM MgCl2, 0.1 mM EDTA, 100 ng/ul BSA, 5% glycerol, 1 mM DTT, room temp 30 min; FP: 20 mM sodium phosphate pH 7.0, 50 mM; settings: protein: recombinant; tags: none (TrxA-His6 removed by 3C for EMSA); label: 32P end label
# [3] = target: T3, TbRAP1 639-761 (RRM+DB) (Trypanosoma brucei, UniProt C1JEX5 639-761); test: as above; settings: protein: recombinant, tags: none (TrxA-His6 removed by 3C for EMSA)
# [4] = target: T3, TbRAP1 639-761 (RRM+DB); test: NMR titration; EMSA: 20 mM HEPES pH 7.9, 235 mM KCl, 1 mM MgCl2, 0.1 mM EDTA, 100 ng/ul BSA, 5% glycerol, 1 mM DTT, room temp 30 min; FP: 20 mM sodium phosphate pH 7.0, 50 mM; settings: protein: recombinant; tags: none (TrxA-His6 removed by 3C for EMSA)
# [5] = target: T4, TbRAP1 639-733 2FL (Trypanosoma brucei, UniProt C1JEX5 639-733, F655L;F694L); test: NMR titration; 3x molar excess RNA; EMSA: 20 mM HEPES pH 7.9, 235 mM KCl, 1 mM MgCl2, 0.1 mM EDTA, 100 ng/ul BSA, 5% glycerol, 1 mM DTT, room temp 30 min; FP: 20 mM sodium phosphate pH 7.0, 50 mM; settings: protein: recombinant; tags: none (TrxA-His6 removed by 3C for EMSA)
# [6] = target: T4, TbRAP1 639-733 2FL; test: EMSA; EMSA: 20 mM HEPES pH 7.9, 235 mM KCl, 1 mM MgCl2, 0.1 mM EDTA, 100 ng/ul BSA, 5% glycerol, 1 mM DTT, room temp 30 min; FP: 20 mM sodium phosphate pH 7.0, 50 mM; settings: protein: recombinant, tags: none (TrxA-His6 removed by 3C for EMSA)
# [7] = target: TbRAP1 639-733 2FA (Trypanosoma brucei, UniProt C1JEX5 639-733, F655A;F694A); test: as above; settings: protein: recombinant, tags: none (TrxA-His6 removed by 3C)
# [8] = target: TbRAP1 639-733 2FQ (Trypanosoma brucei, UniProt C1JEX5 639-733, F655Q;F694Q); test: as above; settings: protein: recombinant, tags: none (TrxA-His6 removed by 3C)
# [9] = target: TH6-TbRAP1 639-761 5A (Trypanosoma brucei, UniProt C1JEX5 639-761, R737A;K738A;R739A;R740A;R741A); test: as above; settings: protein: recombinant, tags: TrxA-His6
# [10] = target: TH6-TbRAP1 639-761 2FA&5A (Trypanosoma brucei, UniProt C1JEX5 639-761, F655A;F694A;R737A;K738A;R739A;R740A;R741A); test: as above; settings: protein: recombinant; tags: TrxA-His6
# [11] = target: T3, TbRAP1 639-761 (RRM+DB); test: fluorescence polarization; EMSA: 20 mM HEPES pH 7.9, 235 mM KCl, 1 mM MgCl2, 0.1 mM EDTA, 100 ng/ul BSA, 5% glycerol, 1 mM DTT, room temp 30 min; FP: 20 mM sodium phosphate pH 7.0, 50 mM; settings: protein: recombinant; tags: none (TrxA-His6 removed by 3C for EMSA); label: 5' 6-FAM
# [12] = target: TbRAP1 639-761 5A (Trypanosoma brucei, UniProt C1JEX5 639-761, R737A;K738A;R739A;R740A;R741A); test: as above; settings: protein: recombinant; label: 5' 6-FAM
# [13] = target: T2, TbRAP1 639-733 (RRM); test: NMR titration; EMSA: 20 mM HEPES pH 7.9, 235 mM KCl, 1 mM MgCl2, 0.1 mM EDTA, 100 ng/ul BSA, 5% glycerol, 1 mM DTT, room temp 30 min; FP: 20 mM sodium phosphate pH 7.0, 50 mM; settings: protein: recombinant, tags: none (TrxA-His6 removed by 3C for EMSA)
# [14] = target: TH6-TbRAP1 639-761 (Trypanosoma brucei, UniProt C1JEX5 639-761); test: EMSA; EMSA: 20 mM HEPES pH 7.9, 235 mM KCl, 1 mM MgCl2, 0.1 mM EDTA, 100 ng/ul BSA, 5% glycerol, 1 mM DTT, room temp 30 min; FP: 20 mM sodium phosphate pH 7.0, 50 mM; settings: protein: recombinant; tags: TrxA-His6; label: 32P
# [15] = target: TH6-TbRAP1 639-733 (Trypanosoma brucei, UniProt C1JEX5 639-733); test: as above; settings: protein: recombinant; tags: TrxA-His6; label: 32P
molecule,measurement,setting,value
UGAUAUAUUUUAACAC [6-FAM-16-VSG-UTR],Kd,[1],929 µM
UUGCUACUUGAAAACUUUUUGAUAUAUUUUAACAC (ssRNA) [35-VSG-UTR],binding result,[2],binds
same,binding result,[3]; label: 32P end label,binds
AAAACUUUUUGAUAUAUUUUAACACCAAAACCAG (ssRNA) [34-VSG-UTR],binding result,[4],binds
same,binding result,[5],no binding
B1,binding result,"[3]; label: 32P Klenow, blunt",binds
B2,binding result,[6],no binding
same,binding result,[7],no binding
same,Kd,[3],~0.173 µM
same,binding result,[8],no binding
same,binding result,[9],binds
same,binding result,[10],no binding
UGAUAUAUUUUAACAC (ssRNA) [6-FAM-16-VSG-UTR],Kd,[11],~258 µM
same,Kd,[12],~969 µM
UUAGGGUUAGGG (ssRNA) [(UUAGGG)2],binding result,[13],no binding
ACAGACCACUACAAGAUACACAGUACAACCAACCA (ssRNA) [35-random],binding result,[13]; label: 32P end label in EMSA,no binding
B3,binding result,[6]; label: 32P,no binding
same,binding result,[7]; label: 32P,no binding
same,binding result,[14],binds
same,binding result,[3]; label: 32P,binds
same,binding result,[8]; label: 32P,no binding
same,binding result,[15],binds
same,binding result,[9]; label: 32P,binds

# — article PMC10033678, “The RRM-mediated RNA binding activity in T. brucei RAP1 is essential for VSG monoallelic expression”
